# Results: paper PMC5601012 (Molecular pharmaceutics, 2017)
# Read-outs that look alike come from different tables or passages of the source.
# B1: αPD-1 scFv, NH2-Histag(H6)-(GGGSG)3-VH-(GGGSG)4-VL-COOH (scFv, V domains shown)
# VH: EVQLQESGPGLVKPSQSLSLTCSVTGYSITSSYRWNWIRKFPGNRLEWMGYINSAGISNYNPSLKRRISITRDTSKNQFFLQVNSVTTEDAATYYCARSDNMGTTPFTYWGQGTLVTVSS
# VL: DIVMTQGTLPNPVPSGESVSITCRSSKSLLYSDGKTYLNWYLQRPGQSPQLLIYWMSTRASGVSDRFSGSGSGTDFTLKISGVEAEDVGIYYCQQGLEFPTFGGGTKLELK
# B2: intact anti-programmed death-1 antibody (αPD-1), clone RMP1-14 (antibody, V domains shown)
# VH: B1 VH
# VL: B1 VL
# How the values were obtained:
# [1] = target: T1, programmed death-1 (PD-1) on EL4 cells (mouse (endogenous in EL4), UniProt Q02242); experiment: flow cytometry on cells
# T1 sequence (Q02242 25-288): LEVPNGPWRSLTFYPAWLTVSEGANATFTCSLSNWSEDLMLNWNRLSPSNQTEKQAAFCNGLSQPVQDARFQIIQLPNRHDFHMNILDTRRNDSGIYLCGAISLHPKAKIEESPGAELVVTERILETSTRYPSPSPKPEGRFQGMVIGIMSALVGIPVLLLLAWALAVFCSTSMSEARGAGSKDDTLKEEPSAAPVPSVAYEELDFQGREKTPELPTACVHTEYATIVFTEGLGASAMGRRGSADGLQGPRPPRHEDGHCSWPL
# [2] = target: T1, programmed death-1 (PD-1) on EL4 cells; experiment: flow cytometry on cells; remark: listed apart in the source
Binder,EC50 [1] [nM],EC50 [2] [nM]
B1,4160,320
B2,1320,
